Test results reported in IntAct's records for PubMed 9355745.

B1: Tyrosine-protein phosphatase non-receptor type 1 (Homo sapiens), P18031 (parent)
chain: MEMEKEFEQIDKSGSWAAIYQDIRHEASDFPCRVAKLPKNKNRNRYRDVSPFDHSRIKLHQEDNDYINASLIKMEEAQRSYILTQGPLPNTCGHFWEMVWEQKSRGVVMLNRVMEKGSLKCAQYWPQKEEKEMIFEDTNLKLTLISEDIKSYYTVRQLELENLTTQETREILHFHYTTWPDFGVPESPASFLNFLFKVRESGSLSPEHGPVVVHCSAGIGRSGTFCLADTCLLLMDKRKDPSSVDIKKVLLEMRKFRMGLIQTADQLRFSYLAVIEGAKFIMGDSSVQDQWKELSHEDLEPPPEHIPPPPRPPKRILEPHNGKCREFFPNHQWVKEETQEDKDCPIKEEKGSPLNAAPYGIESMSQDTEVRSRVVGGSLRGAQAASPAKGEPSLPEKDEDHALSYWKPFLVNMCVATVLTAGAYLCYRFLFNSNT

Variants of: B1
Details: with pgfrb_human PDGFRB

effect of a mutation on the interaction	Variant
increasing interaction	C215S
